A protein production outcome set (Wang et al. 2014)

Experiment: label from the status in PepcDB records

Row | Sequence | protein production
1 | MTMTHLNRLILISLLFVSLLLKSSTASSTVVDEGNRTSRNFRYRTHRFVPRFNHHPYHVTPHRSCDSFIRPYARSMCIELQRIHRSSRKQPLLSPPPPEIDPRYGVDKRLVPSGPNPLHN | failed
2 | GSSGSSGMCGRFAQSQTREDYLALLAEDIERDIPYDPEPIGRYNVAPGTKVLLLSERDEHLHLDPVFWGYAPGWWDKPPLINARVETAATSRMFKPLWQHGRAICFADGWFEWKKEGDKKQPFFIYRADGQPIFMAAIGSTPFERGDEAEGFLIVTAAADQGLVDIHDRRPLVLSPEAAREWMRQEISGKEASEIAASGCVPANQFSWHPVSRAVGNVKNQGAELIQPV | not failed
3 | MTDNRKFEIVADTELPGTPERVWQAVTKDTPAWMFPTDQWPDVKTTEEYPSHLVSRMDGPDGWFNQLEHVLEPLEGGRAKLHYVHSGIFADNWDEQYDGASKHTEFYLHTLGQYLQHFDGKPVVFTDIQAPPSSQAPDGFVQLKQALGVDGLPTGTSVDVDIDGVGRLSAEVDFSNENFLGLRTADTMYRFFGRNVFGAPVGMTVHEFSGSGDSELTAKAWGAFLEKVYALEHHHHHH | failed
4 | MVPEFIILGAAILLSICDLFFKLNHRYVALGAIAAIVLAIVSLITLYSEPAGDILNGSFVLDGFSKGFKTLLLGASALILCTAMSDDKKNPIEDKGEYYYLFLMALLGAMFMASSVDFITLFVGLELLSLSSYILVGIRKKSRASNEAAMKYVISGGIGTAITLFGMSYLYGITGSTNIVDMQKVLTGELASGIQLLLALAFLLLLVGLSFKIATVPFHMWAPDVYEGAATPVTAFLGTISKIAGFLLIIRLFLMIFASVLIQGDMQSLYGHMSIYIAVLASITMIVGNVVALKQYNIKRLFAYSGIAHAGYLLVPLVALSPFTMDSMWFYMLAYMLMNIGAFAIIHGLILQNNEENITIFTGLYKRSPFTAIMMTIFILSLAGIPGTAGFIGKINIFLGALHVEPAHYVLASIMMGTTVVSFVYYFRILQQMFFRTGETEERIRLPLNIKVVMSLCAISIVILGIMPMIGYNFFYEYFPLMKDFFFLGNVVQ | not failed
5 | MLVSSSKITRAREMVTKTEEKQLNQLEIQVDNGGGGTWEYLCLVRNLKVRRSEKVLKHGSSILNDQKKRSALGPDEWTLNEQVAIAAMDCQCLGVAQSCIKALQTKFPGSKRVGRLEALLLEAKGLWGEAEEAYASLLEDNPLDQAIHKRRVAISKALGKPSIAIELLNKYLELFMADHDAWRELAELYLSLQMYKQAAFCYEELILSQPTVPLYHLAYAEVLYTIGGVENIISARKYYAATVDLTGGKNTRALLGICLCASAIAQLSKGRNKEDKDATAAPELHSLAAAAVEKEYKQKAPDKLQLISSALRILKT | failed
6 | MPTATDARGHTVTLDHRPRRILSLVPSQTELLAHLDLADEVVGITRFCERPEHWRSEKAIVGGTKQVDFDTVRDLDPDLVLANHEENTAEDVETLDEIAPVFVTEVKTVEDALGMIRTVGTLTETSDQTSTLVGKIISRFESLPDFTSLRAAYLIWRDPYMTIGNDTFIHDVMHWGGLENAYGDQTRYPDVTIADLAEQDLDVVLCSSEPFPFHEKDAFTADLREALPDTSVEIVDGQPFSWYGPRLLDTPSYLKTLRERLPTPAPRR | failed
7 | MMTDKLNLNVLDAAFYSLEQTVVQISDRNWFDMQPSIVQDTLIAGAIQKFEFVYELSLKMMKRQLQQDAINTDDIGAYGFKDILREALRFGLIGDMSKWVAYRDMRNITSHTYDQEKAMAVYAQIDDFLIESSFLLEQLRQRNQYD | not failed
8 | GTVLVSIKSSLPENNFFDDALIDELLQQFASFGEVILIRFVEDKMWVTFLEGSSALNVLSLNGKELLNRTITIALKSP | not failed
9 | MGVALAAMCLMSAQAQRRNEIQVPNLNGYTTLKCDFHMHSVFSDGLVWPTVRVDEAYREGLDAISLTEHIEYRPHKKDIIADHNRSYELSQKQAKKLGILLIRGSEITRSMPPGHFNAIFLNDSNPLEQKAYKDAFNEAKKQGAFIFWNHPGWARQQPDSTLWWPEHTQLYNDGCMHGIEVANGGLFMPEAIQWCLDKNLTMIGTSDIHQPIQTDYDFSKGEHRTMTFVFAKERSPEGIREALDNRRTAVYYRELVIGREEILRPFFEKCVDIKEVKRTEKEVTFSVMNATDLVLKLKKTAHDPSLVYFREMTLKPHTQHTISVKFDNGIKGGDCNFEVTNFIVAPDKGLDYTIKL | not failed
10 | MAIASSSPSSSSNVSVIPTGPQVFISFRGKELRKGFISFLVPALKKKNINVFIDEHEVRGKDLISLFRRIGESKIALVIFSEGYTESKWCLDELVQIKKCVDQKKIIAIPIFYKLDPAVVKGLKGKFGDKFRDLIERYHHEPERYQKWTEALTSVSRTFALCLPEHRLRFFNHKNCLFLVAQDTNDKSEKDFIRSIIKEVKKALSNISRERNGDREEIDDCFVVSERKLTTDMYDTPE | failed
11 | MTQAFSRVRFIMTQPSHPGNVGSAARAIKTTGFGELVLVAPRFPDMTAQPEAVTLASGALDVLERAAVHDTLEEALAPVTLAFALTARVRDLGPPPCDIREAAGLARRHLDDTEAGVVAIVLGTERAGLTNAQIELCHRICHIPANPQYSSLNVAQALQLAAWELRYALLAGTGQSLLPASSAQQANPGAAPADGAAVQALLAHWEQALVAVGFLDPAHPKKLMPRMKHLLTRSALSRDEVDMLRGVCTAMIAPNRPK | failed
12 | MDDLNPLAGTAHLLEEVDKKLMVLLRDGRTLIGYLRSVDQFANLVLQRTIERIHVGNEYGDIPRGVFIIRGENVVLLGEIDREKEQKLPLKEISVDEILDAQRREQEQRQEKHRLVSKALKERGLAVDANIINEDFC | failed
13 | MNYPAENFTKRFLSSLAQVMLQSNTVTGFLFLVGIGLNSPTMLLGCILAILSSLAVAKLFQYDSNCVTKGFYGFNAALVGIAVFSLLPLSFISLVLVLLGGAFSALLMHVMITKIPSIPALTTPFILSTWTIVLIIDSVGLADPMSGSFTGSISPTLIDSLHGVLRGVGQVMLQDSWLSGAVFCCALLFSSYKTAVWAILGSLIGLLVATTFGFSQEKAMMGLYGFNGCLVAIALVDRYPNKYWLIILAILFSVLFTRVFEMIAIPAFTAPFVMTTWLMIGIVKLKADFD | failed
14 | MKLILAPMEGLTDPIMRDVLTHVGSFDWCVTEFIRVTDSVLPDHVYYTYCPELKNNGKTAAGTPVHVQFLGNNPDMLAANAEKVVALGAPAIDLNFGCPAKTVNRHRGGSILLDEPDVVHLLVKAVRDAVPAHIPVSAKMRLGYLDENHTMDNAYAIQEAGANWLTVHARTKADGYTPPAYWEKIQPIKDALSINVIANGEIWTNQDAKACQQQSGCEDLMIGRGAVTTPDLTLCIRQNVDEALMNWAALIELQQRFLNGEYKTEIGMIGRYKQWLGMMTKAYPEAKQLWDEIKRIKNLDEILLKLGRSS | failed
15 | MVVVMNPEQIYGVSNIKSHIPVMLDIEESNYDAWRELFLTHCLSFDVMGHIDGTLLPTNANDVNWQKRDGIVKLSLYGTLTPKQFQGSFVTSSTSRDIWLRIKNQFRNNKDARALRLDSELRTKDIGDMRVADYYRKMKKLADSLRNVDVPVTDRNLVMYVLNGLNPKFDNIINVIKHRQPFPSFDDAATMLQEEEDRLKRAIKPNPTHVDHSSSSTVLACSEAPPVTNFQRSGGNQMGYRGRGRGNNIFRGRGGRFSYYNMPTFNSWNRPPFYQNSYQMWNHPWGYPPYVNTNGGNGLGLLGPRPAY | failed
16 | MAYEDLSKKIIAGVGGKDNVKSVVHCTTRLRFKLKDESATHTDELKDTDGVITVVQSGGQYQVVIGNEVADVYETLIRVGGFADGGSVPDDYEDGEKMSIFDRFIDLISGIFTPMLGVLCAAGMIKGFVAMFVAFNWLSENSGTYKILYSIGDGFFYFLPIVLGLTAAKKFHVDQFVGMAIGMALCYPSIVALNSSKTVLSTLFSGSIFESQIHATFLGIPVVMMSYTSSVIPIILAVWFASKVQAFAKRIVPTVVKTFLVPFITLLIAVPITFLIIGPVASWLSDGISTVCVAIYNFSPIVAGLVMGAFWQVFVIFGVHWGFVAVMMANLASQGFDPILGLSLAASFAQTGVVLGILLQTKNQKTRGIALPAFISGIFGVTEPAIYGLTLPRKRPFILSCVAASIGGGIIGFAGTKMYMMGGMGLFSIPAAINSKTGVDGSVYGLIIAMAIAAVLGFALQMLFGYKSVDSNDKQTKVVETAATADPVMAGGVSVETTPTGAATKVEPNVTYNAATKLSSPETGQIIPLSEVKDEVFSSGAMGKGVAIEPTDGVLYAPADGEVALVFPTGHAVGLNTTDGAEILMHIGMDTVELEGKGFETLVQKGETVKAGQPLVKFDIEAIKAAGYPVTTPMVVTNSKNYHDVKLAFPAATEVNATEPLLQLN | failed
17 | MSAWFELKQYGSGACRFLLKTKEAQTMLQSDRYPCRDSAEAALGLFRAHCASPERYVKKISSGGKPFFKLKSGKEVILVSHLYDSEATLESAISAIASAGTTERVEHIQL | failed
18 | HRYIPTLFFHGWGSSYHAETHMADAIVKAGKTQTIVRAMVAKNGTVTLKGHFRSGDYRPIVEVNFANNRSSDYPTVGRWAKNVVVALQRTYGITSFNMVGHSMGNMAITYYLLANAQNKRLPQLRQQVAIAGHFNGILGMDDSPNQMTLNAAGRPNKLRPAYRQLLGLRRVYPRQQVRVLNIYGDKGDGTHSDGSVSNASSRSLRYLVAARARSYREVKLTGKHAQHSQLHENAQVDRLLIDFLWPTH | not failed
19 | MRCANCGNELKAGSLYCDVCGHPVQIVPDYNEFDDYLDNLVGNDDRRTDGQKTAKPVSDRTIRFDDPVREQLHSAGQWNGQKTDRMSQSVKQQVRQAQTGEQQSQTKQPCEKPQSDGQRAKRAQQKKIIIISAVVCAVAIVILIAAITRNVSRSHDNSFDYQVKQAKAAYSAGNINSAVSYYEKALSIDSDNTDVRFALADIYMSKKDYDAALVLYQEIINIDPKSKEAYKQLISIYESKKDYDAIVALRESAKDASVLKLFADYTVSKPQFSKSSGKYGETMELSIDADSDTKIYYSYDSDDPLTRGERYYSPITLDKEGTYEITAVAVDDRGIKSEVASAKYEIEFEAPDAPEIDPDGGTFGAQTDITITVPENCKVYYTWDSSDPSAASTEYTAPIPVPEGNNVLSVIAIDQNTGKCSDIYRSRFEFYMN | failed
20 | MHQSVIDPQGLIDLKILIVIALCLLFSPHIAKILRLPLSATEIILGAIIAYFGFIGKSENFALLANVGFYYLMFIAGMEVNLRAFFNMDKEIAKKSFFYIFLLYALSSLIVWIFGLSLVFVIIIPVMSVGLLSLLFKDFGKECYWLNIAMIVATLAEVISIVLLTIAGAFLREGTGIIDVAQSILYLNIFLGLCLLGFKMLGVLFWWYPQLKVVLMPWEDKNEKDIRFCMAIFILIIVAMVITKLEIVLGSFIAGSFIATFFDHKKDLEHKLSTFGHGFLIPIFFIHIGSTFDLKMILDYKIVLQAFLLMFVMVGLRILCASVFLKRIGFKNMILFGLSHSMPLTLLIATATLGYSGKVIDEKLYSALILTALFEAIIVMSMIKFLSNSKK | failed
21 | MAAVRKIHVTVKFPSKQFTVEVDRTETVSSLKDKIHIVENTPIKRMQLYYSGIELADDYRNLNEYGITEFSEIVVFLKSINRAKD | not failed
22 | MWMKDPVARPLSPTRLQPALPPEAQSVPELEEVARVLAEIPRPLKRRGSMEQAPAVALPPTHKKQYQQIISRLFHRHGGPGPGGRSQSCPPSLRDLRPGQGPLLLPHQLPFHRPAPSQSSPPEQPQSMEMRSVLRKAGSPRKARRARLNPLVLLLDAALTGELEVVQQAVKEMNDPSQPNEEGITALHNAICGANYSIVDFLITAGANVNSPDSHGWTPLHCAASCNDTVICMALVQHGAAIFATTLSDGATAFEKCDPYREGYADCATYLADVEQSMGLMNSGAVYALWDYSAEFGDELSFREGESVTVLRRDGPEETDWWWAALHGQEGYVPRNYFGLFPRVKPQRSKV | not failed
23 | MSDSWTERWNDRYSNEIFAYGEKPNNYLKAQLENLQPGTILFAAEGEGRNAVFAACLGWDVQAFDISSEGKKKAFQLAEKNQVTIAYQVGQLETLGYTAGQFDALALIYAHFPATVKSAYHRILSSYVRSGGYIIFEAFSKKHLDYLAKNEQVGGPKEFDMLFSIEEIKADFPDYEILELEEKEIELNEGQFHNGTGSVIRFTGRKKLEHHHHHH | failed
